Substitutions are numbered along the chain they refer to.
T1: Scc1p tagged with myc epitopes at the C-terminus (endogenous wild type), Q12158
T1 chain: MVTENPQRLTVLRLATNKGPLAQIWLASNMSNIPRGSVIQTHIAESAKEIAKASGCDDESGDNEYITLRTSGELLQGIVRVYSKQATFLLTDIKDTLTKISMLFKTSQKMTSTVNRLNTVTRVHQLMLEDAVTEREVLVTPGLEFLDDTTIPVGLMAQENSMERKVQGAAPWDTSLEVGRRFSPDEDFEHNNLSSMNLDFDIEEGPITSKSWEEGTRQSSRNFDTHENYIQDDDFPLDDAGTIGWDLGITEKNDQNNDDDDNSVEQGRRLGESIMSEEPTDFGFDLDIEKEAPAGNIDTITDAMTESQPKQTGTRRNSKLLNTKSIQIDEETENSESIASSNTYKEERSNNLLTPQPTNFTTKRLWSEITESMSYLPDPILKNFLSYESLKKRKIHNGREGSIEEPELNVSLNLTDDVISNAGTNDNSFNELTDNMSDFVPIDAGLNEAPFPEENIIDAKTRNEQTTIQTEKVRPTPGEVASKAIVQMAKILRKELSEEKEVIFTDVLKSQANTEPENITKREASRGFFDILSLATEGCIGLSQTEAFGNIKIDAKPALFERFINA

T2: Scc1p R180D R268D double mutant, HA tagged (non-cleavable Scc1p), Q12158
T2 chain: T1 chain with R180D, R268D

T3: Scc1p tagged with multiple HA epitopes, chromatin-bound (chromatin of nocodazole-arrested yeast), Q12158
T3 chain: T1 chain

T4: Purified recombinant Scc1 with C-terminal FLAG epitope, from baculovirus-infected insect cells, unphosphorylated, Q12158
T4 chain: T1 chain

T5: Purified recombinant Scc1 with C-terminal FLAG epitope, from okadaic acid treated insect cells, mitotically phosphorylated form, Q12158
T5 chain: T1 chain

T6: Scc1p with arginine 268 mutated to aspartic acid, HA tagged, Q12158
T6 chain: T1 chain with R268D

B1: Esp1p (yeast separin), wild type, overproduced from the GAL1-10 promoter in yeast cell extract (protein)
chain: MMVKQEEPLNEISPNTPMTSKSYLLNDTLSKVHHSGQTRPLTSVLSGDASSNSIGILAMHNNIIRDFTKIASNNIDLAIEDITTVDHSLNSIYSLLKSHHMWGHINSTVKQHLMIIVKLINNNALGLASSEIIFLFNETNLFQAHSLKNILLADFSTWNDYYLSNLKILALQIILKRKLVDEYLPHILELFSHDKRYLLKDPNLKAHALTKIVLSFFSVTTSCKVLFGLKFLQYIKQFKLPFKKFISNITVECFSKNLLHKNYLEMGPNKIYLNSFYLSYSMLYDGLDKIMLLDILSYEETTEVQRAIKSKKEFNEYCNMSENRLLWSCISVDDLNVILENATNFLQNKGKHISATLKCLVCLWSTIRLEGLPKNKDILRQFDCTVIYINSNIKSINDESAAALLSELLGVLSEICIDYKEPKRLSNIISVLFNASVLFKSHSFLLKTANLEISNVLISNDSKTSHRTILKFEKFISSAQSAQKKIEIFSCLFNVYCMLRNDTLSFVFDFCQNAFIHCFTRLKITKFIEFSNSSEIMLSVLYGNSSIENIPSENWSQLSRMIFCSLRGIFDLDPLELNNTFDKLHLLNKYELLIRIVYLLNLDMSKHLTTNLSKITKLYINKWLQKSDEKAERISSFEMDFVKMLLCYLNFNNFDKLSIELSLCIKSKEKYYSSIVPYADNYLLEAYLSLYMIDDALMMKNQLQKTMNLSTAKIEQALLHASSLINVHLWDSDLTAFQIYFGKTLPAMKPELFDINNDHNLPMSLYIKVILLNIKIFNESAKLNIKAGNVISAVIDCRKAQNLALSLLKKKNKLSQGSRLALLKSLSFSFFQLIKIHIRIGSARDCEFYSKELSRIISDLEEPIIVYRCLHFLHRYYMITEQTCLQNITLGKANKAFDYLDAEADITSLTMFLYDNKEFVKLEQSLVLYFGDQLEKTFLPNLWKLHLGKDIDDSICLSEYMPKNVINRVHNMWQKVMSQLEEDPFFKGMFESTLGIPSSLPVIPSTMPNNILKTPSKHSTGLKLCDSPRSSSMTPRGKNIRQKFDRIAAISKLKQMKELLESLKLDTLDNHELSKISSLSSLTLTILSNITSIHNAESSLITNFSLTDLPRHMPLLFDKVLNNIDNKNYREFRVSSLIAPNNISTITESIRVSAAQKDLMESNLNINVITIDFCPITGNLLLSKLEPRRKRRTHLRLPLIRSNSRDLDEVHLSFPEATKKLLSIINESNQTTSVEVTNKIKTREERKSWWTTRYDLDKRMQQLLNNIENSWFNGVQGFFSPEVVDNSLFEKFKDKFYEILHQNLPSRKLYGNPAMFIKVEDWVIELFLKLNPQEIDFLSKMEDLIYFVLDILLFHGEENAYDEIDFSMLHVQLEEQIKKYRATMTTNSIFHTFLVVSSSCHLFPWECLSFLKDLSITRVPSYVCLNKLLSRFHYQLPLQVTIEDNISMILNPNGDLSRTESKFKGMFQKIIDAKPSSQLVMNEKPEEETLLKMLQNSNLFVYIGHGGGEQYVRSKEIKKCTKIAPSFLLGCSSAAMKYYGKLEPTGTIYTYLLGGCPMVLGNLWDVTDKDIDKFSEELFEKMGFRCNTDDLNGNSLSVSYAVSKSRGVCHLRYLNGAAPVIYGLPIKFVS

What was measured:
HeLa cells [1] = assay: SCC1 cleavage and securin degradation in synchronized HeLa cells released into the cell cycle in the presence of nocodazole; assay type: cell-based, human; details: double-thymidine synchronized, immunoblot
Description: For cell cycle synchronization, a double-thymidine treatment was used. HeLa cells were first treated with 2 mM thymidine for 18 h. Subsequently, cells were washed with PBS, fresh medium was added and the cells were grown for another 8 h. Then the cells were treated again with 2 mM thymidine for 18 h, subsequently washed and incubated in fresh medium. Samples were taken at different time points. Samples were splitted and used for FACscan analysis and for immunoblotting. Cell extracts were made with glass-teflon potters in ice cold buffer containing 50 mM Tris pH 7.7, 100 mM NaCl, 20 mM b-glycerophosphate, 5 mM MgCl2, 1 mM NaF, 0.1-0.2% Triton X-100, 10% Glycerol, 1 mM DTT and protease inhibitors).
In some experiments logarithmically growing HeLa cells were treated with 330 nM nocodazole dissolved in 0.1% DMSO for 18 hours, or cells synchronized by double-thymidine treatment were released into nocodazole-containing medium for different periods of time. […]
HeLa cells stably expressing SCC1-myc were synchronized by double-thymidine treatment and were released into the cell cycle in the presence of either DMSO (results shown in FIGS. 11A and C) or nocodazole dissolved in DMSO (results shown in FIGS. 11B and D). […] Cells were analyzed by FACsan (FIGS. 11A and B) and by immunoblotting of whole cell extracts using the indicated antibodies (FIGS. 11C and D). […]

HeLa cells [2] = assay: Association of human SCC1 with chromatin (quantitative immunoblotting of chromatin and supernatant fractions); assay type: cell-based; details: HeLa cells arrested in metaphase by nocodazole (56% in logarithmically growing cells)
Description: In some experiments logarithmically growing HeLa cells were treated with 330 nM nocodazole dissolved in 0.1% DMSO for 18 hours, or cells synchronized by double-thymidine treatment were released into nocodazole-containing medium for different periods of time. In control experiments 0.1% DMSO was added without nocodazole. Chromatin and supernatant fractions were prepared from HeLa cells that were either growing logarithmically (log) or were arrested in metaphase with nocodazole (noc). Proteins from equivalent aliquots of these fractions were separated by SDS-PAGE and analyzed for the presence of SCC1 by immunoblotting using radiolabeled antibodies (FIG. 8, top panel), The intensities of the SCC1 bands were quantitated (FIG. 8, bottom panel).

[3] = target: T1, Scc1p tagged with myc epitopes at the …
[4] = target: T2, Scc1p R180D R268D double mutant, HA …
[5] = target: T3, Scc1p tagged with multiple HA epitopes, …
[6] = target: T4, Purified recombinant Scc1 with …
[7] = target: T5, Purified recombinant Scc1 with …
[8] = target: T6, Scc1p with arginine 268 mutated to …

Row | Molecule | cleavage of SCC1 (HeLa cells [1]) | securin degradation (HeLa cells [1]) | amount of the total cellular SCC1 associated with chromatin (HeLa cells [2]) | Scc1p cleavage in Esp1-containing extracts (chromatin substrate) [3] | Scc1p cleavage in Esp1-containing extracts (chromatin substrate) [4] | Scc1p cleavage and dissociation from chromatin in vitro (Western blot of chromatin and supernatant fractions) [5] | cleavage assay using purified Scc1 (Western blot, anti-FLAG) [6] | cleavage assay using purified Scc1 (Western blot, anti-FLAG) [7] | Scc1p cleavage in the Esp1 assay (chromatin substrate) [8]
1 | COC(=O)Nc1nc2ccc(C(=O)c3cccs3)cc2[nH]1 [nocodazole] | no cleavage of SCC1 could be observed | not degraded | 13% |  |  |  |  |  | 
2 | B1 |  |  |  | the myc tagged wild type protein was efficiently cleaved | HA tagged double mutant protein was no longer cleaved when incubated in Esp1-containing extracts | most disappears from the chromatin fraction upon incubation with extracts containing high levels of wild type Esp1 protein | Both unphosphorylated and phosphorylated purified Scc1 were cleaved in an Esp1-dependent manner in vitro | the efficiency of cleavage was much greater when Scc1 was in the mitotically phosphorylated state | cleavage at site 268 was indeed eliminated by the aspartic acid mutation. However, the mutated protein was still cleaved in an Esp1-dependent manner

Reference: US7410774B1, “Compounds modulating sister chromatid separation and method for identifying same” (Boehringer Ingelheim International GmbH, priority 1999, dated 2008)
